Reference: the Immune Epitope Database (IEDB)

Assays:
HLA-B*58:01 = experiment: IEDB peptide-MHC binding, purified MHC/competitive/radioactivity; filed as Kd, often an IC50 or EC50 that approximates it; ≥ and ≤ were set here for values at or beyond the usual limits of such assays
HLA-B*57:01 [1] = experiment: as above
HLA-B*51:01 [2] = experiment: IEDB peptide-MHC binding, purified MHC/direct/fluorescence; filed as Kd, often an IC50 or EC50 that approximates it; ≥ and ≤ were set here for values at or beyond the usual limits of such assays; settings: source organism: West Nile virus
HLA-A*02:16 = experiment: as above; settings: source organism: Ebola virus Yambio0403
HLA-A*02:03 = experiment: as above; settings: source organism: Ebola virus Yambio0403
HLA-A*03:01 [3] = experiment: as above; settings: source organism: Ebola virus Yambio0403
HLA-A*02:12 [4] = experiment: as above; settings: source organism: Ebola virus Yambio0403
HLA-A*24:03 = experiment: as above; settings: source organism: Zaire ebolavirus
HLA-A*29:02 = experiment: as above; settings: source organism: Ebola virus Yambio0403
HLA-A*02:11 [5] = experiment: as above; settings: source organism: Ebola virus Yambio0403
HLA-A*02:19 = experiment: as above; settings: source organism: Ebola virus Yambio0403
HLA-A*68:02 = experiment: as above; settings: source organism: Ebola virus Yambio0403
HLA-B*15:01 = experiment: IEDB peptide-MHC binding, purified MHC/competitive/fluorescence; filed as Kd, often an IC50 or EC50 that approximates it; ≥ and ≤ were set here for values at or beyond the usual limits of such assays
HLA-A*26:01 = experiment: as above
HLA-A*02:01 = experiment: as above; settings: source organism: Zaire ebolavirus
HLA-B*15:17 = experiment: as above; settings: source organism: Zaire ebolavirus
HLA-B*27:03 = experiment: as above
HLA-B*39:01 = experiment: as above
HLA-B*57:01 [6] = experiment: as above
HLA-B*18:01 = experiment: as above
HLA-B*51:01 [7] = experiment: as above
HLA-A*69:01 = experiment: as above; settings: source organism: Zaire ebolavirus
HLA-B*46:01 = experiment: as above
HLA-A*32:01 = experiment: IEDB peptide-MHC binding, purified MHC/competitive/radioactivity; filed as Kd, often an IC50 or EC50 that approximates it; ≥ and ≤ were set here for values at or beyond the usual limits of such assays; settings: source organism: Dengue virus 1 Singapore/S275/1990
HLA-A*01:01 = experiment: IEDB peptide-MHC binding, purified MHC/competitive/fluorescence; filed as Kd, often an IC50 or EC50 that approximates it; ≥ and ≤ were set here for values at or beyond the usual limits of such assays; settings: source organism: Human immunodeficiency virus 1
HLA-A*03:01 [8] = experiment: as above; settings: source organism: Coxiella burnetii 'MSU Goat Q177'
HLA-A*02:12 [9] = experiment: as above; settings: source organism: Coxiella burnetii 'MSU Goat Q177'
HLA-A*02:11 [10] = experiment: as above; settings: source organism: Coxiella burnetii 'MSU Goat Q177'
[11] = source organism: Dengue virus 4 Philippines/H241/1956
[12] = source organism: Dengue virus 1 Brazil/97-11/1997
[13] = source organism: Zaire ebolavirus
[14] = source organism: Dengue virus 1 Singapore/S275/1990
[15] = source organism: Coxiella burnetii 'MSU Goat Q177'

Work on RAKGSRAIW yielded a Kd (HLA-B*58:01; [11]) of 0.0271 µM and a Kd (HLA-B*57:01 [1]; [11]) of 0.172 µM.
Sequence RPAADGKTV has a Kd (HLA-B*51:01 [2]) of at least 20 µM.
Work on SAIVLEFFMM yielded a Kd (HLA-B*58:01; source organism: Dengue virus 3 Martinique/1243/1999) of 0.198 µM.
In the case of SATRLENIMW, the Kd (HLA-B*58:01; [12]) is reported as 0.0697 µM and the Kd (HLA-B*57:01 [1]; [12]) is reported as 0.0117 µM.
With SWHHTSDDF the Kd (HLA-A*02:16) was at least 20 µM, the Kd (HLA-A*02:03) was at least 20 µM and the Kd (HLA-A*03:01 [3]) was at least 20 µM. For the same sequence, the Kd (HLA-A*02:12 [4]) was at least 20 µM, the Kd (HLA-A*24:03) was 0.0187 µM and the Kd (HLA-A*29:02) was at least 20 µM. For the same sequence, the Kd (HLA-A*02:11 [5]) was at least 20 µM, the Kd (HLA-A*02:19) was at least 20 µM and the Kd (HLA-A*68:02) was at least 20 µM. The Kd (HLA-B*15:01; [13]) was at least 20 µM, the Kd (HLA-A*26:01; [13]) was at least 20 µM and the Kd (HLA-A*02:01) was at least 20 µM. The Kd (HLA-B*15:17) was at least 20 µM, the Kd (HLA-B*27:03; [13]) was at least 20 µM and the Kd (HLA-B*39:01; [13]) was at least 20 µM. It also gave a Kd (HLA-B*57:01 [6]; [13]) of at least 20 µM, a Kd (HLA-B*18:01; [13]) of at least 20 µM and a Kd (HLA-B*51:01 [7]; [13]) of at least 20 µM. It also gave a Kd (HLA-A*69:01) of at least 20 µM and a Kd (HLA-B*46:01; [13]) of at least 20 µM.
TTFSLHYAW gave a Kd (HLA-B*58:01; [14]) of 0.00159 µM, a Kd (HLA-B*57:01 [1]; [14]) of 0.00142 µM and a Kd (HLA-A*32:01) of 0.00133 µM.
WMADVPLQW gave a Kd (HLA-B*58:01; source organism: Dengue virus 3 Singapore/8120/1995) of 0.000528 µM.
Work on WMSNGTWNY yielded a Kd (HLA-A*01:01) of 0.0089 µM.
Sequence YYLIKYLHV has a Kd (HLA-B*15:01; [15]) of at least 20 µM, a Kd (HLA-A*26:01; [15]) of at least 20 µM and a Kd (HLA-A*03:01 [8]) of at least 20 µM. The Kd (HLA-B*27:03; [15]) was at least 20 µM, the Kd (HLA-B*39:01; [15]) was at least 20 µM and the Kd (HLA-B*57:01 [6]; [15]) was at least 20 µM. The Kd (HLA-A*02:12 [9]) was 1.17 µM, the Kd (HLA-B*18:01; [15]) was at least 20 µM and the Kd (HLA-B*51:01 [7]; [15]) was at least 20 µM. It also gave a Kd (HLA-A*02:11 [10]) of 0.0715 µM and a Kd (HLA-B*46:01; [15]) of at least 20 µM.
